The data set in a line: yeast display, Sf9 membrane polyspecificity reagent, FACS + sequencing; frameworks hold sequencing errors. In short, it runs like this: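 Nanobodies came from a synthetic yeast display library in Saccharomyces cerevisiae BJ5465, induced with galactose for 36–48 hours and stained for 1 hour at 4 °C with 10% biotinylated, detergent-solubilized Sf9 membrane reagent. Cells were enriched on streptavidin microbeads and then FACS-sorted, with low and high (top ~1%) gates set on anti-HA fluorescence for expression and streptavidin fluorescence for reagent binding. Each polyreactivity label reflects the gate a clone came from. Genes were amplified by colony PCR, sequenced by MiSeq 2 × 250 and filtered by CDR length.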
Regarding “QVQLVESGGGLVQAGGSLRLSCAACGLTYNANAMGWYRQAPGKERELVAAIDWIGGSTYYADSVKGRFTISRDNAKNTVYLQMNSLKPEDTAVYYCASRSKRRNYDYWGQGTQVTVSS”, the “polyreactivity (PSR sort gate)” value is on record as “high polyreactivity”. Turning to “QVQLVESGGGLVQAGGSLRLSCAACGRIFSYNAMGWYRQAPGKERELVAAIRWRGGSTYYADSVKGRFTISRDNAKNTVYLQMNRLKPEDTAVYYCNALRYYHYDYWGQGTQVTVSS”, the “polyreactivity (PSR sort gate)” value is reported as “high polyreactivity”. Consider “QVQLVESGGGLVQAGGSLRLSCAACGRPFTLYAMGWYRQAPGKERELVASITSGTRTYYADSVKGRFTISRDNAKNTVYLQMNSLKPEDTAVYYCAKEGYRRTLHRLYDYWGEGTQVTVSS”, for which the “polyreactivity (PSR sort gate)” value is “low polyreactivity”. For “QVQLVESGGGLVQAGGSLRLSCAACGSIFRPNAMGWYRQAPGKERELVAAITWIAGGTYYADSVKGRFTISRDNAKNTVYLEMNSLKPEDTAVYYCAARWYFQTAVGRYYHYDYWGQGTQVTVSS” the value was “high polyreactivity”. In the case of “QVQLVESGGGLVQAGGSLRLSCAACGSTFGYNAMGWYRQAPGKERELVADISWSGGTTYYADSVKGRFTISRDNAKNTVYLQMNSLKPEDTAVYYCNARYPDRPVQGWRVEVDYWGQGTQVTVSS”, the “polyreactivity (PSR sort gate)” value was “high polyreactivity”.

For the sequence “QVQLVESGGGLVQAGGSLRLSCAACGYSFPAYAMGWYRQAPGKERELVAAINRRGGTTYYADSVKGRFTISRDNAKNTVYLQMNSLKPEDTAVYYCARYSGLKDMDYWGQGTQVSVSS”, the “polyreactivity (PSR sort gate)” value is reported as “high polyreactivity”. For “QVQLVESGGGLVQAGGSLRLSCAAPGIIFVDYTMGWYRQAPGKERELVAAIDWSGGSTYYADSVKGRFTISRDNAKNTVYLQMNSLKPEDTAVYYCAALKTTYIYSSDFDYWGQGTQVTVSS” the value was “low polyreactivity”; for “QVQLVESGGGLVQAGGSLRLSCAAPGSIFPRYAMGWYRPAPGKERELVAAISRSGGSTYYADSVKGRFTISRDNAKNTVYLQMNSLKPEDTAVYYCATDKVSHRRYDYWGQGTQVTVSS”, “high polyreactivity”; for “QVQLVESGGGLVQAGGSLRLSCAAPGSTFQFNVMGWYRQAPGKERELVAAITSGASTYYADSVKGRFTISRDNAKNTVYLQMYSLEPEDTAVYYCAVDYSFLYDYVQRYYYWGQGTQVTVSS”, “high polyreactivity”. For “QVQLVESGGGLVQAGGSLRLSCAASACTFNVNAMGWYRQEAGKERELVAAITNGGITNYADSVKGRFTISRDNAKNTVYLQMNSLKPEDTAVYDCAARTIYKTQSPRPFRRGYWGQGTQVTVSS” the value was “high polyreactivity”; for “QVQLVESGGGLVQAGGSLRLSCAASAFIFGRYVMGWYIQAPGKEREVVAAISWSGGRTYYADSVKGRFTISRDNAKNTVYLQMNSLKPEDTAVYYCAAESSYPSYDGYYWGQGTQVTVSS”, “high polyreactivity”. For “QVQLVESGGGLVQAGGSLRLSCAASAFILASYPMGWNRQAPGKERELVAAITKRGGSTYYADSVKGRFTISRDNAKNTVFLQMNSLKPEDTAVYFCATYSSTVLPRWKYYYWGQGTQVPVSS” the value was “high polyreactivity”; for “QVQLVESGGGLVQAGGSLRLSCAASAFILDWNTIGWYRQAPRKEREFVAAITSRGGDTYYADSVKGRFTISRDNAKNTDYFQMNSMKPEDTAVYYWNKGFKLWPRYGYDYWGLGTQVTVSS”, “low polyreactivity”; for “QVQLVESGGGLVQAGGSLRLSCAASAFILYRNAMGWYRQAPGKERELVAAITWNGDRTHYADSVMGRFTISRDNAKNTVYLQMNSLKPEDNAVYYCAAYYVSVRGGRYRNKWYDHWGQGTQVTVSS”, “high polyreactivity”.

With “QVQLVESGGGLVQAGGSLRLSCAASALTFGSNAMGWYRQAPGKERELVAAISRSGGTTYYADSVKGRFTISRDNAKNTVYLQMNSLKPEDTAVYYCATRPYSPWRHYYWGQGTQVTVSS”, the “polyreactivity (PSR sort gate)” value is on record as “high polyreactivity”. Consider “QVQLVESGGGLVQAGGSLRLSCAASARIFIVNAMGWYRQAPGKDREFVAANTSRGGITYYADSVKGRFTISRDNAKNTVYLQMNSLKPEDTAVYYCAAGYITCGSGNWVVTPYDYWGQGTQVTVSS”, for which the “polyreactivity (PSR sort gate)” value is on record as “high polyreactivity”. Turning to “QVQLVESGGGLVQAGGSLRLSCAASARIFTAYAMGWYRQAPGKERELVASISTSGGRTYYADSVKGRFTISRDNAKNTVYLQINSLKPEDTAVYYFAADFESYSRYYDGYDYWGQGTQVTVSS”, the “polyreactivity (PSR sort gate)” value was “high polyreactivity”. As for “QVQLVESGGGLVQAGGSLRLSCAASARIVRKYTMGWFRQAPGKERELVAAISRNGGDTYYADSVKGRFTISRDNAKNTVYLQMHSLKPEDTAVYYCNARTPTDSTHFDYWGQGTQVTVSS”, the “polyreactivity (PSR sort gate)” value is “low polyreactivity”.

For the sequence “QVQLVESGGGLVQAGGSLRLSCAASARTFRQYAMGWYRQSPGKERELVAAIRTNGGRTYYADSVKGRFTISRDNAKNTVYLQMNSLKPEDTAVYYCAVRPRPGYYYWGQGTQVTVSS”, the “polyreactivity (PSR sort gate)” value was “high polyreactivity”.

Regarding “QVQLVESGGGLVQAGGSLRLSCAASARTFYYYAMGWYRQAPGKERELVAAISWSGGRTYYADSVKGRFTISRDNAKNTVYLQMNSLKPEDTAVYYFAVPYPAEGYGGDYWGQGTQVTVSS”, the “polyreactivity (PSR sort gate)” value is given as “low polyreactivity”. In the case of “QVQLVESGGGLVQAGGSLRLSCAASASIFDDNAMGWYRQAPGKERELVAGISRGGSTNYADSVKGRFTISRDNAKNTVYLQMNSLKPEDTAVYYCNKRYKPSWTTYDYWGQGTQVTVSS”, the “polyreactivity (PSR sort gate)” value was “low polyreactivity”. On to “QVQLVESGGGLVQAGGSLRLSCAASASIFDGYAMGWYRQAPGKERELVAAISKGGTRTYYADSVKGRFTISRDNAKNTVYLQMNSLKPEDSSVYYCNAYYRREPDDGDYDYWGQGTQVTVSS”, for which the “polyreactivity (PSR sort gate)” value was “high polyreactivity”. On to “QVQLVESGGGLVQAGGSLRLSCAASASTFWFNVMGWYRQATGKETELDAVITWTGGSTSYADSVKGRFTISRDNAKNTVYLQMNSLKPEDTAVYYCATPVKFGGVPYRYGYWGQGTQVTVSS”, for which the “polyreactivity (PSR sort gate)” value is listed as “low polyreactivity”. For “QVQLVESGGGLVQAGGSLRLSCAASAYILFKYAKGSYRQAPGKERELVAGITRGGTTYYADSVKGRFTISRDNAKNTVYLQMNSLKPEDTAVYYCAVAITFSSYKFYYWGQGTQVTVSS” the value was “high polyreactivity”; for “QVQLVESGGGLVQAGGSLRLSCAASAYNFDGYAMGWYRQAPGKERELVAAINSGGGTYYADSVKGRFTISRDNAKNTVYLQMNSLKPEDTAVYYCAKYTYDYWGQGTQVTVSS”, “low polyreactivity”. In the case of “QVQLVESGGGLVQAGGSLRLSCAASGATFAQYAMGWYRQAPGKERELVAAISRGGGSTYCADSVKGRFTISRDNAKNTVYLQMNSLKPEDTAVYYCAADPRYRVTLGFDYWGQGSQVTVSS”, the “polyreactivity (PSR sort gate)” value was “high polyreactivity”. For “QVQLVESGGGLVQAGGSLRLSCAASGATFYVYAMGWYRQAPGKERELVAAIRYRGGTTHYADSVKGRFTISRDNAKNTVYVQMNSLKPEDTAVYYCAADGYVYRSGRRYDYWGQGTQVTVSS”, the “polyreactivity (PSR sort gate)” value was “high polyreactivity”. “QVQLVESGGGLVQAGGSLRLSCAASGCTFKYYTMGWYRQAPGKERELGAAINWRGGTTYYADSVKGRFTISRDNAKNTVYLQMNSLKPEDTAVYYSAKVNGPYRGGGYSRFDYWGQGTQVTVST”: the “polyreactivity (PSR sort gate)” value is reported as “high polyreactivity”. Take “QVQLVESGGGLVQAGGSLRLSCAASGFAFSHYAMGWYRQAPGKERELVAAISWGGGSTYYADSVKGRFTISRDNAKNTVYLQMNSLRPEDTAVYYCAASIWLRYHWGYDYWGQGTQVTVSS”: the “polyreactivity (PSR sort gate)” value is recorded as “high polyreactivity”. Consider “QVQLVESGGGLVQAGGSLRLSCAASGFAFSYYAMGWYRQAPGKEREFVASIDWSGGSTYYADSVKGRFTISRDNAKNTVFLQMNSLKPEDTAVYYCAAELDYFPGYDYWGQGTQVTVSS”, for which the “polyreactivity (PSR sort gate)” value is recorded as “low polyreactivity”. For “QVQLVESGGGLVQAGGSLRLSCAASGFFFEINAMGWYRQAPGKERELVAVITNSGGSTYYADSVKGRFTISRDNAKNTVYLQMNSLKPEDTAVYYCAADAVHYTNDWYDYWGQGTQVTVSS”, the “polyreactivity (PSR sort gate)” value was “low polyreactivity”.

With “QVQLVESGGGLVQAGGSLRLSCAASGFFFSHYAMGWYRQAPGKERVFVATISKRGGSTTYADSVKGRFTISRDNAKNTVYLQMNSLKPEDTAVYYCAATYYRFPSLIAYVRYDYWGQGTQVTVSS”, the “polyreactivity (PSR sort gate)” value is on record as “high polyreactivity”. For the sequence “QVQLVESGGGLVQAGGSLRLSCAASGFIDYDNAMGWYRQAPGKERELVAAITSGGSTYYADSVKGRFTISRDNAKNTVYLQMNSLKPEDTAVYYCARESGYRAYEIQFYYWGQGTQVTVSS”, the “polyreactivity (PSR sort gate)” value is reported as “high polyreactivity”. As to “QVQLVESGGGLVQAGGSLRLSCAASGFIFAANAMGWYRQAPGKEMELVARIRSTGRTSYADSVKGRFTISRDNAKNTVYLQMNSLKPEDTAVYYCATDYYRYRDYAYYWLDYNYWGQGTQVTVSS”, the “polyreactivity (PSR sort gate)” value is listed as “high polyreactivity”.

With “QVQLVESGGGLVQAGGSLRLSCAASGFIFADYAMGWYRQAPGKERELVAAITGRGTSTYYEDSVKGRFTISRDNAKNTVYLQMNSLKPEDTAVYLCAAAGTYYRHYKGYYRHLDYWGQGTQVTVSS”, the “polyreactivity (PSR sort gate)” value is reported as “high polyreactivity”. As to “QVQLVESGGGLVQAGGSLRLSCAASGFIFAEYAMGWSRQAPGQEREFVATINIGGSTYYADSVKGRFTISRDNAKNTVYLQMNSLKPEDTAVYYCAAEFWWGDGSQGIYDYDYWGQGTQVTVSS”, the “polyreactivity (PSR sort gate)” value is “low polyreactivity”. For “QVQLVESGGGLVQAGGSLRLSCAASGFIFAFYDIGWYRQAPGKERELVAAISWGGSTYYADSVKGRFTISRDNAKNTVYLQMNSLKPEDTAVYYCAARLSRSYRYGYWGQGTQVTVSS” the value was “high polyreactivity”; for “QVQLVESGGGLVQAGGSLRLSCAASGFIFAGNAMGWYRQAPGKERELVAAISGSGGSTYYADSVKGRFTISRDNAKNTVYLQMNSLKPEDTAVYYCNAVYYRYYDVEGFDYWGQGTQVTVSS”, “high polyreactivity”; for “QVQLVESGGGLVQAGGSLRLSCAASGFIFAGYPMGWYRQAPGKERELVAGITRNGGSTYYADSVKGRFTISRDNAKNTVYLQMNSLKPEDPAVYYCAATRYSFGPRRVDYWGQGTQVTVSS”, “high polyreactivity”. As for “QVQLVESGGGLVQAGGSLRLSCAASGFIFAGYTMGWSRPAHGKERELVAAIRSSGGRTYYADSVKGRFTISRDNAKNTVYLQMYSMKPEDTAVDYCNAVVDRLIFWQFDYWGQGTQVTVSS”, the “polyreactivity (PSR sort gate)” value is reported as “high polyreactivity”.

For the origin of these results see the nanobody polyreactivity screen of Harvey et al. (2022).
